Measured values reported in patent US8367124B2, “Lymphatic vessel stabilizer” (Shiseido Company, Ltd., priority 2008, dated 2013).

Legend:
Tie2 = biological target: T1, Tie2 (Homo sapiens, UniProt Q02763); test: Western blotting of lymphatic endothelial cells (Tie2 phosphorylation); type: cell-based; details: Western blot of Tie2 and phosphorylated Tie2, DMSO control, compared with Ang-1
T1 construct: endogenous in cells; host or cells: primary human lymphatic endothelial cells from infant foreskin
Protocol: Lymphatic endothelial cells were isolated from human infant foreskin as CD31-positive, CD34-negative, CD45-negative cells (Non-Patent Document 6). The lymphatic endothelial cells were cultured in EBM-2 (Cambrex, Verviers, Belgium) supplemented with addition factors, and protein was extracted with Phosphosafe Extraction Reagent (Novagen, Madison, Wis.) in the presence of various drugs (Ang-1, cinnamon bark extract, Siberian Ginseng extract and syringaresinol). Cells supplemented with DMSO were prepared as a control.
Furthermore, the cinnamon bark extract and syringaresinol were prepared in the manner indicated below. The Siberian Ginseng extract (Ask Intercity) was obtained by extracting Siberian Ginseng root with 30% ethanol. This extract was confirmed to contain 1.01% by weight syringaresinol by HPLC. This extract was then dissolved with DMSO for use as each test sample. The total amount of protein was determined with the RC DC Protein Assay Kit (BIO-RAD, Hercules, Calif.), and detected by Western blotting in the manner described below. An equal amount of total protein was subjected to SDS-PAGE using 7.5% acrylamide gel (NPU-7.5L, ATTO, Japan), and expression of Tie2 and phosphorylated Tie2 protein was confirmed by staining with an ECL Kit using […] (Santa Cruz Biotechnology, Santa Cruz, Calif.).

lymphatic vessels = test: Lymph drainage assay (colloidal carbon injected into the auricle of mice infected with Ang-1 adenovirus); type: in vivo, mouse
Protocol: The auricles of 8-week-old mice were infected with adenovirus (1×10^9 ifu/mouse), in which mouse-derived angiopoietin-1 (Ang-1) gene was incorporated into an AdenoX vector, with a Hamilton syringe (Hamilton, Reno. NV). Mice were also infected with adenovirus incorporating only AdenoX vector as a control. 1 μl of colloidal carbon solution (Kamei Co., Ltd., Japan) was injected into the tip of the auricle with a Hamilton syringe followed by analysis of time-based changes in the flow of lymph. […] In addition, a visual assessment of changes in lymphatic vessel recovery function was also carried out, and comparisons were made by scoring to one of levels (5: all ink remaining in lymphatic vessels, 1: all ink recovered and no longer present in lymphatic vessels), the results of which are shown in FIG. 1.
In addition, after sacrificing the animals by anesthesia, the ears of the animals were simultaneously collected and crushed in liquid nitrogen followed by extraction of protein with Phosphosafe Extraction Reagent (Novagen, Madison, Wis.). The total amount of protein was determined with the RC DC Protein Assay Kit (BIO-RAD, Hercules, Calif.) and detected by Western blotting in the manner described below. […]

T1 sequence (Q02763 23-1124): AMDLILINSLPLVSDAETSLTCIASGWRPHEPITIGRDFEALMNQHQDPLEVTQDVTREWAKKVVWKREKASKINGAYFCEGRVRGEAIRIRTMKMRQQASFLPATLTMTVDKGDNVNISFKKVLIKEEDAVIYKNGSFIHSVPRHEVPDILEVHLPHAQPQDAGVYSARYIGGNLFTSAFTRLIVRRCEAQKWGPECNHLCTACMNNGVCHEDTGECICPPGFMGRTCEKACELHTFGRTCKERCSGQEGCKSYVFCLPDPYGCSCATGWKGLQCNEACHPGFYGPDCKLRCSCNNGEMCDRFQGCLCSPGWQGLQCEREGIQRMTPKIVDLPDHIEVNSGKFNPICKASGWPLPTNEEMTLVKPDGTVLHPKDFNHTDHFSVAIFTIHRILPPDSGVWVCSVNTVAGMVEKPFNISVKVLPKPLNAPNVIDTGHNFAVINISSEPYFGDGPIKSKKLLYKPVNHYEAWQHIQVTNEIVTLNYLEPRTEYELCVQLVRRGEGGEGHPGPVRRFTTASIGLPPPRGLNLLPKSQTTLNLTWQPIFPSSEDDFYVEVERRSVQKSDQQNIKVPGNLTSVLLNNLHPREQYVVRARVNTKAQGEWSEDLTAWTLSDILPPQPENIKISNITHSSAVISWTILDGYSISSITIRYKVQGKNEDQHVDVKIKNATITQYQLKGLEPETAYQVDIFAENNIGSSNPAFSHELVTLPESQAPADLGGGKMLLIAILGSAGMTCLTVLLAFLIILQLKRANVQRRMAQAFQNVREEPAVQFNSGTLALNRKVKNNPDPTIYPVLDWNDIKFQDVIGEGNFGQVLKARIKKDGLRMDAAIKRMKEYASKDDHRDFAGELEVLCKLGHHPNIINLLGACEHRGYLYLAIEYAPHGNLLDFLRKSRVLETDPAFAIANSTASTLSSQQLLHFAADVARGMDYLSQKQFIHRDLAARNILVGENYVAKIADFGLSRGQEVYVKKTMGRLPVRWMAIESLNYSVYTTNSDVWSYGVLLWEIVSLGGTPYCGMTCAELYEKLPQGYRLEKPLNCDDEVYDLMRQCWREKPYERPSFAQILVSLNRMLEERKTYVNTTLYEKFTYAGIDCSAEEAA

Molecule | Tie2 phosphorylation (activation) (Tie2) | lymphatic vessel recovery function (time-based changes in the flow of lymph) (lymphatic vessels; ears of mice highly expressing Ang1 via adenovirus, 1 μl colloidal carbon into tip of auricle, vs AdenoX vector control, data not shown) | lymphatic vessel recovery function, visual assessment score (5: all ink remaining, 1: all ink recovered) (lymphatic vessels; mouse auricle, Ang-1 adenovirus vs AdenoX vector control, FIG. 1)
COc1cc(C2OCC3C(c4cc(OC)c(O)c(OC)c4)OCC23)cc(OC)c1O (stereo not drawn) [syringaresinol, Syringaresinol] | confirmed to activate Tie2 in the same manner as Ang-1 |  | 
angiopoietin 1 (protein, UniProt O08538 20-498, looked up, adenovirus-expressed, mouse-derived Ang-1 gene expressed from AdenoX adenovirus vector in vivo) Angiopoietin-1: SNQRRNPENGGRRYNRIQHGQCAYTFILPEHDGNCRESATEQYNTNALQRDAPHVEPDFSSQKLQHLEHVMENYTQWLQKLENYIVENMKSEMAQIQQNAVQNHTATMLEIGTSLLSQTAEQTRKLTDVETQVLNQTSRLEIQLLENSLSTYKLEKQLLQQTNEILKIHEKNSLLEHKILEMEGKHKEELDTLKEEKENLQGLVSRQTFIIQELEKQLSRATNNNSILQKQQLELMDTVHNLISLCTKEGVLLKGGKREEEKPFRDCADVYQAGFNKSGIYTIYFNNMPEPKKVFCNMDVNGGGWTVIQHREDGSLDFQRGWKEYKMGFGNPSGEYWLGNEFIFAITSQRQYMLRIELMDWEGNRAYSQYDRFHIGNEKQNYRLYLKGHTGTAGKQSSLILHGADFSTKDADNDNCMCKCALMLTGGWWFDACGPSNLNGMFYTAGQNHGKLNGIKWHYFKGPSYSLRSTTMMIRPLDF |  | promoted | remarkable promotion of lymphatic vessel recovery function
